Patent US20200325218A1 (Novartis, published 2020)

What was measured:
[1] = molecular target: T1, recombinant cynomolgus monkey TSLP (cynomolgus monkey, UniProt Q969D9 29-159 (human entry), limits assumed); assay: solution equilibrium titration (SET), antigen titrated in solution, free Fab read on an E. coli hsTSLP-coated MSD plate, mean of 3 experiments ± SD
T1 construct: also called cyno TSLP; Cyno TSLP
T1 chain: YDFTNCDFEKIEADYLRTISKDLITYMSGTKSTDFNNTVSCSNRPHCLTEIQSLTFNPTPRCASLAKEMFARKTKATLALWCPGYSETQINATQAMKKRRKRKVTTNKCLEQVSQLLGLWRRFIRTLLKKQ
Description: (§1) The Fab was incubated at a constant concentration with serial dilutions of the respective antigens. The binding affinity was extracted from a competition curve which was generated by plotting the read-out of the concentration of unbound antibody against the applied antigen concentration.
(§2) A 384-well MSD array MTP was coated o/n at 4° C. with 30 μl/well of hsTSLP (produced in E. coli) diluted in PBS at 5 μg/ml, then washed three times with 70 μl/well of wash buffer and blocked with 50 μl/well of blocking buffer for 1 h at RT on a shaker. After washing, a volume of 30 μl/well of the equilibrated antigen-Fab mix was transferred from the polypropylene MTP to the coated MSD plate and incubated for 20 min at RT.

human TSLP (HEK) = molecular target: T2, human TSLP (HEK) (human, UniProt Q969D9 29-159); assay: as above
T2 construct: also called human TSLP (produced in HEK cells)
Description: as §1, §2

recombinant mouse TSLP = molecular target: T3, recombinant mouse TSLP (mouse, UniProt Q9JIE6 20-140); assay: Biacore SPR, Fab1 captured on a human Fab binder CM5 chip, TSLP injected
T3 construct: Bought from R&D Systems (MW 15 kDa); also called mTSLP; murine TSLP
T3 sequence: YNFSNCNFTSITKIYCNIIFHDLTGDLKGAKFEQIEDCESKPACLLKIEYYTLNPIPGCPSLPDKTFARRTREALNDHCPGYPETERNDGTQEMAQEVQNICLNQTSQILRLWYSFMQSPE
Description: Human Fab binder was immobilized on all four flow cells of a CM5 chip using a Human Fab Capture kit following manufacturer's instructions. A contact time of 360 seconds at a flow rate of 10 uL/min was specified. The temperature of the sample compartment was 10° C. and analysis temperature was 25° C.; prior to immobilization, the CM5 chip was primed with HBS-EP+ and normalized with BIAnormalizing solution. 375 uL of 20 ug/mL human Fab binder was prepared by combining 15 uL 0.5 mg/mL stock with 360 uL pH5 immobilization buffer (both provided in Human Fab Capture kit).
The temperature of the sample compartment was 10° C. and analysis temperature was 25° C. […] Regeneration of the Fab binder surface was achieved after each cycle by injecting 10 mM glycine-HCl, pH 2.0 for 60 s at 10 uL/min, followed by an extra wash with HBS-EP+ buffer. The temperature of the sample compartment was 10° C. and analysis temperature was 25° C.

recombinant human TSLP [2] = molecular target: T4, recombinant human TSLP (human, UniProt Q969D9 29-159); assay: solution equilibrium titration (SET), MSD electrochemiluminescence
T4 construct: Residues 29-159 follow its statement that the mature protein starts at Tyr29; also called rhTSLP; hTSLP
Description: as §1, §2

[3] = molecular target: T1, recombinant cynomolgus monkey TSLP; assay: cell-based or functional assay
[4] = molecular target: naturally-secreted human TSLP (human, UniProt Q969D9 29-159); assay: cell-based or functional assay
recombinant human TSLP [5] = molecular target: T4, recombinant human TSLP; assay: cell-based or functional assay
[6] = molecular target: T5, His6-PreSc-TSLP (recombinant human TSLP used in crystallography) (human); assay: complex purified by size-exclusion chromatography and solved by X-ray crystallography
T5 construct: also called TSLP (chain T)
T5 sequence (chain, as listed by the source limits assumed): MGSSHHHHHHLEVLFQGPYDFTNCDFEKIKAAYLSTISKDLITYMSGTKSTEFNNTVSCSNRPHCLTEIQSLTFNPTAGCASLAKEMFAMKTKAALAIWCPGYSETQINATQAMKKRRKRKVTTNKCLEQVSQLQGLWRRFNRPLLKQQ
Description: The peak fraction was concentrated to 9.2 mg/ml by ultrafiltration and submitted to crystallization screening.

B1: anti-TSLP Fab1 (Fab, V domains shown)
VH: EVQLVESGGGLVKPGGSLRLSCAASGFTFSDYWMHWVRQAPGKGLEWVGHIKSKTDAGTTDYAAPVKGRFTISRDDSKNTLYLQMNSLKTEDTAVYYCAREIYYYAFDSWGQGTLVTVSS
VL: SYELTQPLSVSVALGQTARITCSGDNIGSKYVHWYQQKPGQAPVLVIYGDNERPSGIPERFSGSNSGNTATLTISRAQAGDEADYYCQAADWVDFYVFGGGTKLTVLG
notes: also called anti-human TSLP Fab1; Fab fragment of MOR014824 (Mab1)
Kd [1]: 1.4 pM
Kd (human TSLP (HEK)): 5 pM
binding result (recombinant mouse TSLP): no binding (tested: 10 nM highest antigen concentration)
Kd (recombinant human TSLP [2]): 6 pM
IC50, TSLP-induced MDC secretion from cyno PBMC [3]: 55.5 pM
IC50, TSLP-induced TARC secretion from human PBMC [3]: 11.3 pM
IC50, luciferase reporter gene assay (Ba/F3 cells with hTSLPR, hIL7Rα and Stat5-luciferase) [3]: 10.8 pM
mean IC50 (n=3), TSLP-induced MDC secretion from cyno PBMC [3]: 25.1 pM
mean IC50 (n=3), TSLP-induced TARC secretion from human PBMC [3]: 11.1 pM
mean IC50 (n=3), luciferase reporter gene assay [3]: 9.5 pM
IC50, luciferase reporter gene assay (Ba/F3 cells with hTSLPR, hIL7Rα and Stat5-luciferase) [4]: 17.1 pM
IC50, TSLP-induced TARC secretion from human PBMC (recombinant human TSLP [5]): 20.3 pM
IC50, luciferase reporter gene assay (Ba/F3 cells with hTSLPR, hIL7Rα and Stat5-luciferase) (recombinant human TSLP [5]): 15.4 pM
mean IC50 (n=3), TSLP-induced TARC secretion from human PBMC (recombinant human TSLP [5]): 19.7 pM
mean IC50 (n=3), luciferase reporter gene assay (recombinant human TSLP [5]): 15.3 pM

B2: anti-TSLP Fab1 generated by papain digestion of anti-TSLP mAb1 (crystallography sample) (Fab, V domains shown)
VH: B1 VH
VL: B1 VL
modifications: pyroglutamic acid residue at the amino-terminus
notes: also called the Fab
binding result [6]: binds
